The text below walks through data of PMC7672437.

The target of this experiment is Human recombinant full length DDX3X (human) (UniProt O00571).

As to “Human recombinant full length DDX3X (from UniProt O00571 1-662) (enzyme)”, the helicase activity (unwinding of dsRNA Substrate *R18: R38) against DDX3X concentration, cooperativity index nH was determined as 1.5; the helicase activity (unwinding of dsRNA Substrate *R18: R38) against DDX3X concentration, half-maximal enzyme concentration K1/2 amounted to 0.26 µM; the nuclease (RNaseH2-like) activity against DDX3X concentration, cooperativity index nH (no cooperativity observed) is 0.7.
